In this data set the target is HIV-1 integrase wild-type (IN1-288) (Human immunodeficiency virus 1) (UniProt P04585). As to the kind of experiment: inhibition. The note with it: I = deoxyinosine; PS at first and last linkage; 3'-processing column as printed; strand transfer column 0.070.

As a reminder, the IC50 is the midpoint of a concentration-inhibition curve. Low values mean greater potency, high ones weaker potency. For the sequence IGGIIGGIIGGIIGGI [T30721], the IC50 came to 88 nM.

Source of the values: US6288042.
